{
  "source": "the Human Domainome abundance scans (Beltran et al. 2025)",
  "parents": {"B1": {"name": "Glucocorticoid receptor, residues 419 to 494; numbered along this chain, P04150 (parent)", "chain": "KLCLVCSDEASGCHYGVLTCGSCKVFFKRAVEGQHNYLCAGRNDCIIDKIRRKNCPACRYRKCLQAGMNLEARKTK"}},
  "note": "± gives the uncertainty stated by the source.",
  "data": [
    {"variants_of": "B1", "assay": "abundance fitness (aPCA) (normalised: wild type 0, dead -1); higher = more abundant; growth selection in yeast, the domain comes from the species named", "settings": "Homo sapiens", "values": [
      {"variant": "KLCLVCSDEASGCRYGVLTCGSCKVFFKRAVEGQHNYLCAGRNDCIIDKIRRKNCPACRYRKCLQAGMNLEARKTK", "abundance fitness": "-0.137 ± 0.032"},
      {"variant": "KLCLVCSDEASGCCYGVLTCGSCKVFFKRAVEGQHNYLCAGRNDCIIDKIRRKNCPACRYRKCLQAGMNLEARKTK", "abundance fitness": "-0.128 ± 0.068"},
      {"variant": "KLCLVCSDEASGCHYGILTCGSCKVFFKRAVEGQHNYLCAGRNDCIIDKIRRKNCPACRYRKCLQAGMNLEARKTK", "abundance fitness": "0.129 ± 0.095"},
      {"variant": "KLCLVCSDEASGCHYGGLTCGSCKVFFKRAVEGQHNYLCAGRNDCIIDKIRRKNCPACRYRKCLQAGMNLEARKTK", "abundance fitness": "-0.176 ± 0.036"},
      {"variant": "KLCLVCSDEASGCHYGYLTCGSCKVFFKRAVEGQHNYLCAGRNDCIIDKIRRKNCPACRYRKCLQAGMNLEARKTK", "abundance fitness": "-0.451 ± 0.1"},
      {"variant": "KLCLVCSDEASGCHYGVLTCGSCKVFFKRAVEGQHNYLCAGRNDCIIDKIRRKNCPTCRYRKCLQAGMNLEARKTK", "abundance fitness": "-0.571 ± 0.071"},
      {"variant": "KLCLVCSDEASGCHYGVLTCGSCKVFFKRAVEGQHNYLCLGRNDCIIDKIRRKNCPACRYRKCLQAGMNLEARKTK", "abundance fitness": "-0.065 ± 0.039"},
      {"variant": "KLCLVCSDEASGCHYGVLTCGSCKVFFKRAVEGQHNYLCIGRNDCIIDKIRRKNCPACRYRKCLQAGMNLEARKTK", "abundance fitness": "-0.038 ± 0.079"},
      {"variant": "KLCLVCSDEASGCHYGVLTCGSCKVFFYRAVEGQHNYLCAGRNDCIIDKIRRKNCPACRYRKCLQAGMNLEARKTK", "abundance fitness": "0.001 ± 0.069"},
      {"variant": "KLCLVCSDEASGCHYGVLTCGSCKVFFKRLVEGQHNYLCAGRNDCIIDKIRRKNCPACRYRKCLQAGMNLEARKTK", "abundance fitness": "-0.32 ± 0.043"},
      {"variant": "KLCLVCSDEASGCHYGVLTCGSCKVFFKRWVEGQHNYLCAGRNDCIIDKIRRKNCPACRYRKCLQAGMNLEARKTK", "abundance fitness": "-0.183 ± 0.042"},
      {"variant": "KLCLVCSDEASGCHYGVLTCGSCKVFFKRDVEGQHNYLCAGRNDCIIDKIRRKNCPACRYRKCLQAGMNLEARKTK", "abundance fitness": "-0.701 ± 0.2"},
      {"variant": "KLCLVCSDEASGCHYGVLTCGSCKVFFKRAVEGQHNYLCAGRNDCIIDKIRRKTCPACRYRKCLQAGMNLEARKTK", "abundance fitness": "-0.005 ± 0.045"},
      {"variant": "KLCLVCYDEASGCHYGVLTCGSCKVFFKRAVEGQHNYLCAGRNDCIIDKIRRKNCPACRYRKCLQAGMNLEARKTK", "abundance fitness": "-0.109 ± 0.053"},
      {"variant": "KLCLVCSDEASGCHYGVLTCGSCKVFFKRAVEGQHNYLCAGRNDCIIQKIRRKNCPACRYRKCLQAGMNLEARKTK", "abundance fitness": "-0.385 ± 0.061"},
      {"variant": "KLCLVCSDEASGCHYGVLTCGSCKVFFKRAVEGQHNYLCAGRNDCIILKIRRKNCPACRYRKCLQAGMNLEARKTK", "abundance fitness": "-0.437 ± 0.049"},
      {"variant": "KLCLVCSDEASGCHYGVLTCGSCKVFFKRAVEGQHNYLCAGRNDCIIDKIRRKNCPAYRYRKCLQAGMNLEARKTK", "abundance fitness": "-0.405 ± 0.16"},
      {"variant": "KLCLVCSDEASGCHYGVLTCGSCKVFFKRAVEGQHNQLCAGRNDCIIDKIRRKNCPACRYRKCLQAGMNLEARKTK", "abundance fitness": "-0.137 ± 0.13"},
      {"variant": "KLCLVCSDEASGCHYGVLTCGSCKVFFKRAVEGQHNLLCAGRNDCIIDKIRRKNCPACRYRKCLQAGMNLEARKTK", "abundance fitness": "-0.003 ± 0.04"},
      {"variant": "KLCLVCSDEASGCHYGVLTCGSCKVFFKRAGEGQHNYLCAGRNDCIIDKIRRKNCPACRYRKCLQAGMNLEARKTK", "abundance fitness": "-0.036 ± 0.035"},
      {"variant": "KLCLVCSDEASGCHYGVLTCGSCKVFFKRAVEGQHNYLCAGRNDCIIDKIRRKNCFACRYRKCLQAGMNLEARKTK", "abundance fitness": "-0.003 ± 0.06"},
      {"variant": "KLCLVCSDEASGCHYGVLTCGSCKVFFKRAVEGQHNYLCAGRNDCIIDKIRRKNCRACRYRKCLQAGMNLEARKTK", "abundance fitness": "-0.076 ± 0.031"},
      {"variant": "KLCLVCSDEASGCHYGVLTGGSCKVFFKRAVEGQHNYLCAGRNDCIIDKIRRKNCPACRYRKCLQAGMNLEARKTK", "abundance fitness": "-0.805 ± 0.12"},
      {"variant": "KLCLVCSDEASNCHYGVLTCGSCKVFFKRAVEGQHNYLCAGRNDCIIDKIRRKNCPACRYRKCLQAGMNLEARKTK", "abundance fitness": "-0.093 ± 0.071"},
      {"variant": "KLCLVCSDEASGCHYGVLTCGSCKVFFKRAVEGQHNYLCAGRNDCIIDKIRRKNCPACRYRKCLQAGMNLWARKTK", "abundance fitness": "-0.106 ± 0.04"},
      {"variant": "KLCLVCSDEASGCHYGVLTCGSCKVFFKRAVEGQHNYLCAGRNDCIIDKIRRKNCPACRYRYCLQAGMNLEARKTK", "abundance fitness": "-0.187 ± 0.082"},
      {"variant": "KLCLVCSDEASGCHYGVLTCKSCKVFFKRAVEGQHNYLCAGRNDCIIDKIRRKNCPACRYRKCLQAGMNLEARKTK", "abundance fitness": "0.008 ± 0.045"},
      {"variant": "KLCLVCSDEASGCHYGVLTCGSCKVFFKRAVEGQVNYLCAGRNDCIIDKIRRKNCPACRYRKCLQAGMNLEARKTK", "abundance fitness": "-0.027 ± 0.033"},
      {"variant": "KLCLVCSDEASGCHYGVLTCGSCKVFFKRAVEGQFNYLCAGRNDCIIDKIRRKNCPACRYRKCLQAGMNLEARKTK", "abundance fitness": "0.013 ± 0.078"},
      {"variant": "KLCLVCSDEASGCHYGVLTCGSCKVFFKRAVEGQHNYLCAGRNDCIDDKIRRKNCPACRYRKCLQAGMNLEARKTK", "abundance fitness": "-0.072 ± 0.086"},
      {"variant": "KLCLVCSDEASGCHYGVLTCGSCKVFFKRAVEGQHNYLCAGRNDCIIDKIRRKNCPACRYRKCLWAGMNLEARKTK", "abundance fitness": "-0.063 ± 0.042"},
      {"variant": "KLCLVCSDEASGCHYGVLTCGSCKVFFKRAVEGQHNYGCAGRNDCIIDKIRRKNCPACRYRKCLQAGMNLEARKTK", "abundance fitness": "-0.059 ± 0.029"},
      {"variant": "KLCLVCSDEASGCHYGVLTCGSCKVFFKRAVEGQHNYICAGRNDCIIDKIRRKNCPACRYRKCLQAGMNLEARKTK", "abundance fitness": "-0.043 ± 0.073"},
      {"variant": "KLCLVCSDEASGCHYGVLTCGSCKVFFKRAVEGQHNYLCAGFNDCIIDKIRRKNCPACRYRKCLQAGMNLEARKTK", "abundance fitness": "0.077 ± 0.098"},
      {"variant": "KLCLVCSDEASGCHYGVLTCGSCKVFFKRAVEGQHNYLCAGCNDCIIDKIRRKNCPACRYRKCLQAGMNLEARKTK", "abundance fitness": "-0.064 ± 0.045"},
      {"variant": "KLCLVCSDEASGCHYGVLTCGSCKVFFKRAVEGQHNYLCAGENDCIIDKIRRKNCPACRYRKCLQAGMNLEARKTK", "abundance fitness": "0.011 ± 0.04"}
    ]}
  ]
}
